This is an account of results in US20230140293A1.

As usually defined, the Kd is the concentration at which binding is half-saturated.

The target in test [1] is CH505 w030.21 gp120 (HIV-1). Nature of the test: ELISA, gp120 on plate. On the technique in general: ELISA stands for enzyme-linked immunosorbent assay.
For test [2], the target named is CH505 transmitted/founder (TF) gp120 (HIV-1). Nature of the test: ELISA, gp120 on plate.
Test [3] has as its target CH505 w100.B6 gp120 (HIV-1). Nature of the test: ELISA, gp120 on plate.
Test [4] has as its target CH505 w078.15 gp120 (HIV-1). The test can be described thus: ELISA, gp120 on plate.
Test [5] has as its target CH505 w053.16 gp120 (HIV-1). The test can be described thus: ELISA, gp120 on plate.
Test [6] has as its target CH505 w078.33 gp120 (HIV-1). The test can be described thus: ELISA, gp120 on plate.
Test [7] has as its target HIV-1 Env 426c.TM (N276D.N460D.N463D), Env-pseudotyped virus produced in 293T cells (HIV-1 clade C strain 426c). Nature of the test: cell-based or functional assay.
In test [8] the target is HIV-1 426c.TM (N276D/N460D/N463D) Env on Env-pseudotyped virus produced in 293T cells (HIV-1). The test can be described thus: cell-based or functional assay.
Test [9] deals with CH0505TF.gly3.276 Env, Env-pseudotyped virus produced in 293T cells (HIV-1). The test can be described thus: cell-based or functional assay.
Test [10] has as its target HIV-1 Env 426c, Env-pseudotyped virus produced in 293T cells (HIV-1 clade C strain 426c). The test can be described thus: cell-based or functional assay.
Test [11] concerns the target CH0505TF.gly4 Env, pseudotyped virus produced in 293S GnTI- cells (HIV-1). Nature of the test: cell-based or functional assay.
The target in test [12] is HIV-1 Env 426c.DM (N460D.N463D), Env-pseudotyped virus produced in 293T cells (HIV-1 clade C strain 426c). The test can be described thus: cell-based or functional assay.
The target in test [13] is CH0505TF.gly3.461 Env, pseudotyped virus produced in 293S GnTI- cells (HIV-1). Nature of the test: cell-based or functional assay.
In test [14] the target is CH0505TF.gly3.197 Env, pseudotyped virus produced in 293S GnTI- cells (HIV-1). Nature of the test: cell-based or functional assay.
The target in test [15] is HIV-1 Env 426c.SM (N276D), Env-pseudotyped virus produced in 293S GnTI- cells (Man5-enriched) (HIV-1 clade C strain 426c). The test can be described thus: cell-based or functional assay.
Test [16] has as its target HIV-1 clade C strain 426c Env on Env-pseudotyped virus produced in 293s/GnTI-/- cells (Man5-enrichment) (HIV-1). Nature of the test: cell-based or functional assay.
Test [17] addresses HIV-1 Env 426c.TM (N276D.N460D.N463D), Env-pseudotyped virus produced in 293S GnTI- cells (Man5-enriched) (HIV-1 clade C strain 426c). Nature of the test: cell-based or functional assay.
The target of test [18] is HIV-1 426c.DM (N460D/N463D) Env on Env-pseudotyped virus produced in 293s/GnTI-/- cells (Man5-enrichment) (HIV-1). The test can be described thus: cell-based or functional assay.
Test [19] has as its target HIV-1 CH0505TF.gly3.197 Env on Env-pseudotyped virus produced in 293T cells (HIV-1). The test can be described thus: cell-based or functional assay.
The target in test [20] is HIV-1 CH0505TF.G458Y Env on Env-pseudotyped virus produced in 293S GnTI-/- cells (Man5-enrichment) (HIV-1). The test can be described thus: cell-based or functional assay.
The next test concerns the target CH505 M5 gp120 (HIV-1). Nature of the test: method not named in the legend (FIG. 59F); GMP M5 gp120.
The target of test [21] is HIV-1 CH0505TF.G458Y Env on Env-pseudotyped virus produced in 293T cells (HIV-1). Nature of the test: cell-based or functional assay.
Test [22] concerns the target CH0505TF G458L Env, pseudotyped virus produced in 293S GnTI- cells (HIV-1). The test can be described thus: cell-based or functional assay.
Test [23] deals with CH0505TF G458F Env, pseudotyped virus produced in 293S GnTI- cells (HIV-1). Nature of the test: cell-based or functional assay.
The target of test [24] is CH0505TF G458R Env, pseudotyped virus produced in 293S GnTI- cells (HIV-1). The test can be described thus: cell-based or functional assay.
Test [25] has as its target CH0505TF G458D Env, pseudotyped virus produced in 293S GnTI- cells (HIV-1). The test can be described thus: cell-based or functional assay.
Test [26] concerns the target CH0505TF.gly4.G458Y Env, pseudotyped virus produced in 293T cells (HIV-1). The test can be described thus: cell-based or functional assay.
The target of test [27] is CH0505TF G458E Env, pseudotyped virus produced in 293S GnTI- cells (HIV-1). Nature of the test: cell-based or functional assay.
Test [28] has as its target CH0505TF G458W Env, pseudotyped virus produced in 293S GnTI- cells (HIV-1). Nature of the test: cell-based or functional assay.
Test [29] concerns the target HIV-1 CH0505TF.G458Y Env on Env-pseudotyped virus produced in 293S GnTI-/- cells (Man5-enrichment) (HIV-1). The test can be described thus: cell-based or functional assay. The source holds these as a separate data set.
In test [30] the target is CH0505TF G458K Env, pseudotyped virus produced in 293S GnTI- cells (HIV-1). Nature of the test: cell-based or functional assay.
For test [31], the target named is CH0505TF G458C Env, pseudotyped virus produced in 293S GnTI- cells (HIV-1). The test can be described thus: cell-based or functional assay.
Test [32] has as its target CH0505TF G458S Env, pseudotyped virus produced in 293S GnTI- cells (HIV-1). The test can be described thus: cell-based or functional assay.
Test [33] deals with CH0505TF G458Y.N280D Env, pseudotyped virus produced in 293S GnTI- cells (HIV-1). The test can be described thus: cell-based or functional assay.
Test [34] concerns the target CH0505TF.gly4.G458Y Env, pseudotyped virus produced in 293S GnTI- cells (HIV-1). Nature of the test: cell-based or functional assay.

Where two headings read alike, the source gives them in different places.

CH103 (antibody): the log AUC in [1] was found to be 12.2 log AUC; in test [2], 12.6 log AUC; in test [3], 7.1 log AUC; in [4] it was 10.7 log AUC; in [5], 11.6 log AUC; in [6], 11.1 log AUC. Moreover, the IC50 (µg/ml) in TZM-bl in test [7] was 5.2 µg/mL; in test [9], 0.014 µg/mL; in test [10], more than 40 µg/mL; in test [11] it was 0.005 µg/mL; in [12] it was 6.1 µg/mL; in test [13], 0.009 µg/mL. Also, the IC50 (µg/ml) in TZM-bl in [14] is 0.19 µg/mL; in [15], 2.2 µg/mL; in test [17] it was 0.09 µg/mL; in test [20], 0.44 µg/mL. Moreover, the ID50/IC50 in TZM-bl in test [8] was determined as 5.2 µg/mL; in test [16], 5.3 µg/mL; in test [18], 0.63 µg/mL. The IC50 (ug/ml) in TZM-bl cells in [19] came out at 1.6 µg/mL.

For the substance CH235 (antibody), the Kd with CH505 M5 gp120 (HIV-1) was determined as 8 nM. Further, the IC50 (µg/ml) in TZM-bl is more than 50 µg/mL in [7]; 0.034 µg/mL in test [9]; 0.2 µg/mL in [21]; more than 50 µg/mL in test [10]; 0.004 µg/mL in test [11]; more than 50 µg/mL in test [12]. Moreover, the IC50 (µg/ml) in TZM-bl in test [13] is 0.011 µg/mL; in [14] it was 0.006 µg/mL; in test [29], less than 0.02 µg/mL; in [15], more than 25 µg/mL; in [17] it was more than 25 µg/mL. The values for the ID50/IC50 in TZM-bl in [8], in test [16] and in [18] were more than 50 µg/mL, more than 25 µg/mL and more than 25 µg/mL, respectively. In addition, the IC50 (µg/ml) in TZM-bl cells in test [22] was 0.015 µg/mL; in [23], less than 0.005 µg/mL; in [24], less than 0.005 µg/mL; in test [25] it was 0.011 µg/mL; in [26], 0.064 µg/mL; in test [27], 0.012 µg/mL. In addition, the IC50 (µg/ml) in TZM-bl cells in test [28] was less than 0.005 µg/mL; in [30], 0.022 µg/mL; in [31] it was 0.009 µg/mL; in test [32] it was 0.005 µg/mL; in [33], 2.69 µg/mL; in test [34] it was less than 0.005 µg/mL. In test [19], the IC50 (ug/ml) in TZM-bl cells was 0.16 µg/mL.
